Results published in patent USRE47150 (Bayer, dated 2018).
Where a chain is given by its changes, count along the chain named. Names may count otherwise. Read-outs that look alike come from different tables or passages of the source.

Assays:
[1] = biological target: T1, mouse tissue factor pathway inhibitor (TFPI) (mouse, UniProt O54819 29-289, limits assumed); assay: SPR, TFPI immobilized
T1 construct: bought; also called mTFPI; murine TFPI
T1 sequence (looked up): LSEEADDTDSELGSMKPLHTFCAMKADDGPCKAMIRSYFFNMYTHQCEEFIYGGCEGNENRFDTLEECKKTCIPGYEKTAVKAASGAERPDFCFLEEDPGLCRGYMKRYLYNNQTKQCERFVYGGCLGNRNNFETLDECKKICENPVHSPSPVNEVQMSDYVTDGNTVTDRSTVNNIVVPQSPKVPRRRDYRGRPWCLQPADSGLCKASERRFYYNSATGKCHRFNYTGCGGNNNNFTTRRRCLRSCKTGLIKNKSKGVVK

[2] = biological target: T2, recombinant TFPI of the FXa restoring assay (human, mouse or rat; not specified for Tables 9 and 10); assay: cell-based or functional assay
[3] = biological target: T3, human tissue factor pathway inhibitor (TFPI) (human, UniProt P10646 29-304, limits assumed); assay: SPR, TFPI immobilized
T3 construct: bought; also called hTFPI; human TFPI
T3 sequence (looked up): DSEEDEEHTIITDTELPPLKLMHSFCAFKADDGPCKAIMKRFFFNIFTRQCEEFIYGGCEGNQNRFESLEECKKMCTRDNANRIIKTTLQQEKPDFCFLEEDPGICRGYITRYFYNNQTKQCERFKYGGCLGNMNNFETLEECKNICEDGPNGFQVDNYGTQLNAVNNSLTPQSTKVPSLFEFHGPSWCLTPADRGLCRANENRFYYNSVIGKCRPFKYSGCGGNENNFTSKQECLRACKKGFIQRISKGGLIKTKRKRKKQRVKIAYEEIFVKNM

[4] = biological target: T3, human tissue factor pathway inhibitor …; assay: competitive ELISA
[5] = biological target: T1, mouse tissue factor pathway inhibitor …; assay: competitive ELISA
[6] = biological target: T2, recombinant TFPI of the FXa restoring …; assay: cell-based or functional assay; remark: listed apart in the source
[7] = biological target: T1, mouse tissue factor pathway inhibitor …; assay: SPR, TFPI immobilized; remark: listed apart in the source
[8] = biological target: T3, human tissue factor pathway inhibitor …; assay: SPR, TFPI immobilized; remark: listed apart in the source
[9] = biological target: T3, human tissue factor pathway inhibitor …; assay: competitive ELISA; remark: listed apart in the source
[10] = biological target: T1, mouse tissue factor pathway inhibitor …; assay: competitive ELISA; remark: listed apart in the source

B1: 2A8 HC_K99L (Fab, V domains shown)
VH: QVQLVESGGGLVQPGGSLRLSCAASGFTFRSYGMSWVRQAPGKGLEWVSSIRGSSSSTYYADSVKGRFTISRDNSKNTLYLQMNSLRAEDTAVYYCARLYRYWFDYWGQGTLVTVSS
VL: DIELTQPPSVSVAPGQTARISCSGDNLRNYYAHWYQQKPGQAPVVVIYYDNNRPSGIPERFSGSNSGNTATLTISGTQAEDEADYYCQSWDDGVPVFGGGTKLTVLG
notes: also called 2A8-9
An Improvement [1] of 7.2 fold, a Kd [1] of 0.488 nM and a koff [1] of 0.000759 s⁻¹ were found for B1 in this work. The kon [1] was 1.56e+06 M⁻¹ s⁻¹, the “EC50, FXa restoring assay” value [2] was 1 nM and the “Improvement vs parental 2A8, FXa restoring assay” value (“Improvement vs parental 2A8” below) [2] was 7.9 fold. The Improvement [3] was 7.22 fold, the Kd [3] was 0.309 nM and the koff [3] was 0.000803 s⁻¹. The kon [3] was 2.6e+06 M⁻¹ s⁻¹, the variant/wild-type [4] was 13.5 ratio and the variant/wild-type [5] was 10.8 ratio. The “IC50, FXa restoring assay” value [6] was 0.181 µg/mL and the “Improvement vs parental, FXa restoring assay” value [6] was 3.9 fold.

B2: 2A8 HC_S31P (Fab, V domains shown)
VH: B1 VH with S31P, L99K
VL: B1 VL
notes: also called 2A8-2
An Improvement [1] of 1.71 fold, a Kd [1] of 2.06 nM and a koff [1] of 0.00316 s⁻¹ were found for B2 in this work. The kon [1] was 1.53e+06 M⁻¹ s⁻¹, the Improvement [3] was 1.95 fold and the Kd [3] was 1.15 nM. It also gave a koff [3] of 0.00333 s⁻¹, a kon [3] of 2.91e+06 M⁻¹ s⁻¹ and a variant/wild-type [4] of 3.6 ratio. The variant/wild-type [5] was 2.4 ratio, the “IC50, FXa restoring assay” value [6] was 0.33 µg/mL and the “Improvement vs parental, FXa restoring assay” value [6] was 1.7 fold.

B3: 2A8 HC_S31V (Fab, V domains shown)
VH: B1 VH with S31V, L99K
VL: B1 VL
notes: also called 2A8-3
An Improvement [1] of 5.91 fold, a Kd [1] of 0.595 nM and a koff [1] of 0.00202 s⁻¹ were found for B3 in this work. The kon [1] was 3.39e+06 M⁻¹ s⁻¹, the Improvement [3] was 6 fold and the Kd [3] was 0.373 nM. The koff [3] was 0.00143 s⁻¹, the kon [3] was 3.84e+06 M⁻¹ s⁻¹ and the variant/wild-type [4] was 9.7 ratio. For the same binder, the variant/wild-type [5] was 7.4 ratio, the “IC50, FXa restoring assay” value [6] was 0.201 µg/mL and the “Improvement vs parental, FXa restoring assay” value [6] was 3.5 fold.

B4: 2A8 HC_S35D (Fab, V domains shown)
VH: B1 VH with S35D, L99K
VL: B1 VL
notes: also called 2A8-4
An Improvement [1] of 1.78 fold, a Kd [1] of 1.98 nM and a koff [1] of 0.00246 s⁻¹ were found for B4 in this work. For the same binder, the kon [1] was 1.25e+06 M⁻¹ s⁻¹, the Improvement [3] was 2.35 fold and the Kd [3] was 0.95 nM. For the same binder, the koff [3] was 0.0038 s⁻¹, the kon [3] was 4.01e+06 M⁻¹ s⁻¹ and the variant/wild-type [4] was 4.3 ratio. The variant/wild-type [5] was 2.6 ratio, the “IC50, FXa restoring assay” value [6] was 0.55 µg/mL and the “Improvement vs parental, FXa restoring assay” value [6] was 1.1 fold.

B5: 2A8 HC_S54F (Fab, V domains shown)
VH: B1 VH with S54F, L99K
VL: B1 VL
notes: also called 2A8-7
An Improvement [1] of 1.69 fold, a Kd [1] of 2.07 nM and a koff [1] of 0.00183 s⁻¹ were found for B5 in this work. For the same binder, the kon [1] was 884000 M⁻¹ s⁻¹, the Improvement [3] was 3.08 fold and the Kd [3] was 0.727 nM. The koff [3] was 0.00204 s⁻¹, the kon [3] was 2.81e+06 M⁻¹ s⁻¹ and the variant/wild-type [4] was 6.5 ratio. For the same binder, the variant/wild-type [5] was 3.1 ratio, the “IC50, FXa restoring assay” value [6] was 0.35 µg/mL and the “Improvement vs parental, FXa restoring assay” value [6] was 2 fold.

B6: 2A8 LC_D91W (Fab, V domains shown)
VH: B1 VH with L99K
VL: B1 VL with D91W
notes: also called 2A8-17
An Improvement [1] of 4.32 fold, a Kd [1] of 0.814 nM and a koff [1] of 0.00232 s⁻¹ were found for B6 in this work. For the same binder, the kon [1] was 2.86e+06 M⁻¹ s⁻¹, the Improvement [3] was 2 fold and the Kd [3] was 1.12 nM. The koff [3] was 0.00432 s⁻¹, the kon [3] was 3.86e+06 M⁻¹ s⁻¹ and the variant/wild-type [4] was 7.4 ratio. The variant/wild-type [5] was 4 ratio, the “IC50, FXa restoring assay” value [6] was 0.23 µg/mL and the “Improvement vs parental, FXa restoring assay” value [6] was 3 fold.

B7: 2A8-127 (HC S35D+K99L/LC Y48F+N51V+G56D+V96W) (Fab, V domains shown)
VH: B1 VH with S35D
VL: B1 VL with Y48F, N51V, G56D, V96W
With B7 the “EC50, FXa restoring assay” value [2] was 0.44 nM, the “Improvement vs parental 2A8” value [2] was 18.2 fold and the KD fold improvement [7] was 18.5 fold. For the same binder, the KD fold improvement [8] was 22 fold, the Kd [8] was 0.0841 nM and the koff [8] was 0.000141 s⁻¹. The kon [8] was 1.68e+06 M⁻¹ s⁻¹, the variant/HC_K99L [9] was 18.8 ratio and the variant/HC_K99L [10] was 18.7 ratio.

B8: 2A8-143 (HC S35D+S55R+K99L/LC Y48F+N51V+D91L+V96W) (Fab, V domains shown)
VH: B1 VH with S35D, S55R
VL: B1 VL with Y48F, N51V, D91L, V96W
In the case of B8, the “EC50, FXa restoring assay” value [2] is reported as 0.5 nM, the “Improvement vs parental 2A8” value [2] is reported as 15.8 fold and the KD fold improvement [7] is reported as 48.5 fold. It also gave a KD fold improvement [8] of 50.9 fold, a Kd [8] of 0.0364 nM and a koff [8] of 0.000105 s⁻¹. It also gave a kon [8] of 2.88e+06 M⁻¹ s⁻¹, a variant/HC_K99L [9] of 17.8 ratio and a variant/HC_K99L [10] of 13.4 ratio.

B9: 2A8-200 (HC S35D+S55R+K99L/LC Y48F+N51V+D91W) (Fab, V domains shown)
VH: B1 VH with S35D, S55R
VL: B1 VL with Y48F, N51V, D91W
For B9, the “EC50, FXa restoring assay” value [2] was 0.81 nM, the “Improvement vs parental 2A8” value [2] was 9.7 fold and the KD fold improvement [7] was 55.4 fold. The KD fold improvement [8] was 53.7 fold, the Kd [8] was 0.0344 nM and the koff [8] was 9.88e-05 s⁻¹. It also gave a kon [8] of 2.87e+06 M⁻¹ s⁻¹, a variant/HC_K99L [9] of 19.7 ratio and a variant/HC_K99L [10] of 17.4 ratio.

B10: 2A8-216 (HC S31V+I51D+S55R+K99V/LC Y48F+D91L+V96W) (Fab, V domains shown)
VH: B1 VH with S31V, I51D, S55R, L99V
VL: B1 VL with Y48F, D91L, V96W
In the case of B10, the “EC50, FXa restoring assay” value [2] is reported as 1.08 nM, the “Improvement vs parental 2A8” value [2] is reported as 7.3 fold and the KD fold improvement [7] is reported as 63.9 fold. It also gave a Kd [7] of 0.0515 nM, a koff [7] of 0.000216 s⁻¹ and a kon [7] of 4.19e+06 M⁻¹ s⁻¹. For the same binder, the KD fold improvement [8] was 39.6 fold, the Kd [8] was 0.0467 nM and the koff [8] was 0.000154 s⁻¹. It also gave a kon [8] of 3.29e+06 M⁻¹ s⁻¹, a variant/HC_K99L [9] of 16.4 ratio and a variant/HC_K99L [10] of 11.9 ratio.

B11: 2A8-227 (HC S35D+K99L/LC Y48F+D91L+V96W) (Fab, V domains shown)
VH: B1 VH with S35D
VL: B1 VL with Y48F, D91L, V96W
A KD fold improvement [7] of 21.4 fold, a Kd [7] of 0.153 nM and a koff [7] of 0.00106 s⁻¹ were found for B11 in this work. The kon [7] was 6.91e+06 M⁻¹ s⁻¹, the KD fold improvement [8] was 49.4 fold and the Kd [8] was 0.0375 nM. For the same binder, the koff [8] was 0.000123 s⁻¹, the kon [8] was 3.28e+06 M⁻¹ s⁻¹ and the variant/HC_K99L [9] was 18.8 ratio. It also gave a variant/HC_K99L [10] of 18.2 ratio.

B12: 2A8-g200 (HC Q1E+R30S+S35D+S55R+S56G+K99L/LC D1S+I2Y+A13S+S21T+R28P+N29K+Y48F+N51V+E80M+S89A+D91W+D92S+G93S+V94T) (Fab, V domains shown)
VH: B1 VH with Q1E, R30S, S35D, S55R, S56G
VL: SYELTQPPSVSVSPGQTARITCSGDNLPKYYAHWYQQKPGQAPVVVIFYDVNRPSGIPERFSGSNSGNTATLTISGTQAMDEADYYCQAWWSSTPVFGGGTKLTVLG
A KD fold improvement [7] of 27.3 fold, a Kd [7] of 0.121 nM and a koff [7] of 0.000139 s⁻¹ were found for B12 in this work. The kon [7] was 1.15e+06 M⁻¹ s⁻¹, the KD fold improvement [8] was 31.7 fold and the Kd [8] was 0.0584 nM. It also gave a koff [8] of 3.61e-05 s⁻¹, a kon [8] of 617000 M⁻¹ s⁻¹ and a variant/HC_K99L [9] of 18.3 ratio. For the same binder, the variant/HC_K99L [10] was 13.3 ratio.

B13: 2A8-g216 (HC S31V+I51D+S55R+K99V/LC D1S+I2Y+A13S+S21T+R28P+N29K+Y48F+N51S+E80M+D91L+D92S+V94T+V96W) (Fab, V domains shown)
VH: B1 VH with S31V, I51D, S55R, L99V
VL: B12 VL with V51S, A89S, W91L, S93G, V96W
A KD fold improvement [7] of 41.6 fold, a Kd [7] of 0.0791 nM and a koff [7] of 7.78e-05 s⁻¹ were found for B13 in this work. For the same binder, the kon [7] was 984000 M⁻¹ s⁻¹, the KD fold improvement [8] was 50.7 fold and the Kd [8] was 0.0365 nM. It also gave a koff [8] of 5.29e-05 s⁻¹, a kon [8] of 1.45e+06 M⁻¹ s⁻¹ and a variant/HC_K99L [9] of 19.6 ratio. The variant/HC_K99L [10] was 21.4 ratio.
